Reference: patent publication EP2170953B1

Assays:
[1] = target: Aβ1-42 peptide, high molecular weight (HMW) proto-fibrillar (PF) oligomer enriched preparation (human); assay: ELISA, Ab 0.0156 µg/ml; proto-fibrils against LMW monomers (given without sign)
[2] = target: Aβ1-42 peptide, oligomer-enriched preparation; assay: ELISA assay 2, Ab 1:1 of 0.5 µg/ml
[3] = target: Aβ1-42 peptide, monomer-enriched preparation; assay: ELISA assay 2, Ab 1:1 of 0.5 µg/ml
[4] = target: Aβ1-42 peptide, oligomer-enriched preparation; assay: ELISA assay 3, Ab 1:8 of 0.5 µg/ml
[5] = target: Aβ1-42 peptide, high molecular weight (HMW) proto-fibrillar (PF) oligomer enriched preparation (human); assay: ELISA, Ab 0.25 µg/ml; proto-fibrils against LMW monomers (given without sign)
[6] = target: Aβ1-42 peptide, high molecular weight (HMW) proto-fibrillar (PF) oligomer enriched preparation (human); assay: ELISA, Ab 0.0625 µg/ml; proto-fibrils against LMW monomers (given without sign)
[7] = target: Aβ1-42 peptide, oligomer-enriched preparation; assay: ELISA assay 3, Ab 1:1 of 0.5 µg/ml
[8] = target: Aβ1-42 peptide, monomer-enriched preparation; assay: ELISA assay 3, Ab 1:1 of 0.5 µg/ml
[9] = target: Aβ1-42 peptide, low molecular weight (LMW) monomer preparation (human); assay: ELISA on coated fraction, Ab 0.0625 µg/ml
[10] = target: Aβ1-42 peptide, high molecular weight (HMW) proto-fibrillar (PF) oligomer enriched preparation (human); assay: ELISA on coated fraction, Ab 0.0625 µg/ml
[11] = target: Aβ1-42 peptide, high molecular weight (HMW) proto-fibrillar (PF) oligomer enriched preparation (human); assay: ELISA, Ab 1 µg/ml; proto-fibrils against LMW monomers (given without sign)
[12] = target: Aβ1-42 peptide, high molecular weight (HMW) proto-fibrillar (PF) oligomer enriched preparation (human); assay: ELISA, Ab 0.0313 µg/ml; proto-fibrils against LMW monomers (given without sign)
[13] = target: Aβ1-42 peptide, oligomer-enriched preparation; assay: ELISA mean of 3, Ab 1:8 of 0.5 µg/ml
[14] = target: Aβ1-42 peptide, oligomer-enriched preparation; assay: ELISA assay 3, Ab 1:2 of 0.5 µg/ml
[15] = target: Aβ1-42 peptide, monomer-enriched preparation; assay: ELISA assay 3, Ab 1:2 of 0.5 µg/ml
[16] = target: Aβ1-42 peptide, low molecular weight (LMW) monomer preparation (human); assay: ELISA on coated fraction, Ab 0.0078 µg/ml
[17] = target: Aβ1-42 peptide, high molecular weight (HMW) proto-fibrillar (PF) oligomer enriched preparation (human); assay: ELISA on coated fraction, Ab 0.0078 µg/ml
[18] = target: Aβ1-42 peptide, oligomer-enriched preparation; assay: ELISA assay 1, Ab 1:16 of 0.5 µg/ml
[19] = target: Aβ1-42 peptide, monomer-enriched preparation; assay: ELISA assay 1, Ab 1:16 of 0.5 µg/ml
[20] = target: Aβ1-42 peptide, oligomer-enriched preparation; assay: ELISA assay 1, Ab 1:2 of 0.5 µg/ml
[21] = target: Aβ1-42 peptide, monomer-enriched preparation; assay: ELISA assay 1, Ab 1:2 of 0.5 µg/ml
[22] = target: Aβ1-42 peptide, low molecular weight (LMW) monomer preparation (human); assay: ELISA on coated fraction, Ab 0.5 µg/ml
[23] = target: Aβ1-42 peptide, high molecular weight (HMW) proto-fibrillar (PF) oligomer enriched preparation (human); assay: ELISA on coated fraction, Ab 0.5 µg/ml
[24] = target: Aβ1-42 peptide, oligomer-enriched preparation; assay: ELISA mean of 3, Ab 1:16 of 0.5 µg/ml
[25] = target: Aβ1-42 peptide, monomer-enriched preparation; assay: ELISA mean of 3, Ab 1:16 of 0.5 µg/ml
[26] = target: Aβ1-42 peptide, oligomer-enriched preparation; assay: ELISA assay 3, Ab 1:16 of 0.5 µg/ml
[27] = target: Aβ1-42 peptide, monomer-enriched preparation; assay: ELISA assay 3, Ab 1:16 of 0.5 µg/ml
[28] = target: Aβ1-42 peptide, oligomer-enriched preparation; assay: ELISA assay 1, Ab 1:4 of 0.5 µg/ml
[29] = target: Aβ1-42 peptide, oligomer-enriched preparation; assay: ELISA assay 1, Ab 1:1 of 0.5 µg/ml
[30] = target: Aβ1-42 peptide, monomer-enriched preparation; assay: ELISA assay 1, Ab 1:1 of 0.5 µg/ml
[31] = target: Aβ1-42 peptide, oligomer-enriched preparation; assay: ELISA mean of 3, Ab 1:2 of 0.5 µg/ml
[32] = target: Aβ1-42 peptide, monomer-enriched preparation; assay: ELISA mean of 3, Ab 1:2 of 0.5 µg/ml
[33] = target: Aβ1-42 peptide, oligomer-enriched preparation; assay: ELISA assay 3, Ab 1:32 of 0.5 µg/ml
[34] = target: Aβ1-42 peptide, monomer-enriched preparation; assay: ELISA assay 3, Ab 1:32 of 0.5 µg/ml
[35] = target: Aβ1-42 peptide, oligomer-enriched preparation; assay: ELISA mean of 3, Ab 1:4 of 0.5 µg/ml
[36] = target: Aβ1-42 peptide, monomer-enriched preparation; assay: ELISA mean of 3, Ab 1:4 of 0.5 µg/ml
[37] = target: Aβ1-42 peptide, oligomer-enriched preparation; assay: ELISA assay 1, Ab 1:128 of 0.5 µg/ml
[38] = target: Aβ1-42 peptide, monomer-enriched preparation; assay: ELISA assay 1, Ab 1:128 of 0.5 µg/ml
[39] = target: Aβ1-42 peptide, oligomer-enriched preparation; assay: ELISA assay 3, Ab 1:4 of 0.5 µg/ml
[40] = target: Aβ1-42 peptide, monomer-enriched preparation; assay: ELISA assay 3, Ab 1:4 of 0.5 µg/ml
[41] = target: Aβ1-42 peptide, oligomer-enriched preparation; assay: ELISA assay 1, Ab 1:8 of 0.5 µg/ml
[42] = target: Aβ1-42 peptide, monomer-enriched preparation; assay: ELISA assay 1, Ab 1:8 of 0.5 µg/ml

Chain of Aβ1-42 peptide, high molecular weight (HMW) proto-fibrillar (PF) oligomer enriched preparation (human) (peptide, as listed by the source, form in doubt): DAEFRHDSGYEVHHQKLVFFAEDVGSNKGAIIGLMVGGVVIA
Chain of Aβ1-42 peptide, low molecular weight (LMW) monomer preparation (human) (peptide, as listed by the source, form in doubt): as above
Chain of Aβ1-42 peptide, oligomer-enriched preparation (peptide, as listed by the source, form in doubt): as above
Chain of Aβ1-42 peptide, monomer-enriched preparation (peptide, as listed by the source, form in doubt): as above

6E10 control antibody was tested, and the O.D. difference [1] was 0.01 O.D, the O.D. [2] was 3.67 O.D and the O.D. [3] was 3.77 O.D. For the same substance, the O.D. [4] was 3.23 O.D, the O.D. difference [5] was 0.12 O.D and the O.D. difference [6] was 0.03 O.D. The O.D. [7] was 3.89 O.D, the O.D. [8] was 4.04 O.D and the O.D. [9] was 0.574 O.D. The O.D. [10] was 0.544 O.D, the O.D. difference [11] was 0.13 O.D and the O.D. difference [12] was 0.04 O.D. For the same substance, the O.D. (mean) [13] was 2.98 O.D, the O.D. [14] was 3.83 O.D and the O.D. [15] was 4 O.D. The O.D. [16] was 0.133 O.D, the O.D. [17] was 0.116 O.D and the O.D. [18] was 1.78 O.D. The O.D. [19] was 1.78 O.D, the O.D. [20] was 3.39 O.D and the O.D. [21] was 3.3 O.D. It also gave an O.D. [22] of 2.13 O.D, an O.D. [23] of 2 O.D and an O.D. (mean) [24] of 1.92 O.D. It also gave an O.D. (mean) [25] of 1.98 O.D, an O.D. [26] of 2.07 O.D and an O.D. [27] of 2.23 O.D. It also gave an O.D. [28] of 3.1 O.D, an O.D. [29] of 3.36 O.D and an O.D. [30] of 3.67 O.D. For the same substance, the O.D. (mean) [31] was 3.59 O.D, the O.D. (mean) [32] was 3.59 O.D and the O.D. [33] was 1.4 O.D. It also gave an O.D. [34] of 1.54 O.D, an O.D. (mean) [35] of 3.37 O.D and an O.D. (mean) [36] of 3.27 O.D. For the same substance, the O.D. [37] was 0.62 O.D, the O.D. [38] was 0.64 O.D and the O.D. [39] was 3.64 O.D. For the same substance, the O.D. [40] was 3.52 O.D, the O.D. [41] was 2.73 O.D and the O.D. [42] was 2.67 O.D.
